Measurements as given in patent EP2149585A1 (Novartis Vaccines and Diagnostics, Inc., dated 2010).
Values belong to the binder of their own block, whether it stands above or below them.

Columns and labels:
[1] = target: T1, Recombinant soluble CD40-his (human, UniProt P25942 21-193); test: Biacore SPR: antibody captured on immobilized protein A, CD40-his flowed at varying concentrations; 1:1 model, global fit
T1 construct: Soluble recombinant CD40 with his tag used in Biacore

[2] = target: T2, CD40 extracellular Domain 2 GST fusion protein (human, UniProt P25942 61-104); test: SDS-PAGE and western blot of GST-domain fusion proteins from insect cell supernatant
T2 construct: Secreted from insect cells with a GP67 secretion signal; not shown: glutathione S-transferase (GST) fusion partner
T2 chain: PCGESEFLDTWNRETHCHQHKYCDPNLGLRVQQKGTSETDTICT

[3] = target: T3, CD40 Domain 2 peptide, spot 21 (human); test: SPOTs membrane of 10mer peptides, stripped and reprobed
T3 construct: 10mer on a SPOTs membrane
T3 peptide: KYCDPNLGLR

[4] = target: T4, CD40 Domain 2 peptide, spot 20 (human); test: as above
T4 construct: 10mer on a SPOTs membrane
T4 peptide: HKYCDPNLGL

[5] = target: T5, CD40 Domain 2 peptide, spot 22 (human); test: as above
T5 construct: 10mer on a SPOTs membrane
T5 peptide: YCDPNLGLRV

[6] = target: T6, CD40 extracellular Domain 1 GST fusion protein (human, UniProt P25942 21-60); test: Western blot, GST fusion of the domain from insect cell supernatant
T6 construct: Expressed in insect cells with a GP67 secretion signal; only the domain stood in the assay; not shown: GST fusion partner
T6 chain: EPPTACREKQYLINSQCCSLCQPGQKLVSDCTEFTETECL

[7] = target: T7, CD40 extracellular Domain 3 GST fusion protein (human, UniProt P25942 105-144); test: as above
T7 construct: Expressed in insect cells with a GP67 secretion signal; only the domain stood in the assay; not shown: GST fusion partner
T7 chain: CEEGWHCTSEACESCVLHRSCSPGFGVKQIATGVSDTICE

[8] = target: T8, CD40 extracellular Domain 4 GST fusion protein (human, UniProt P25942 145-187); test: as above
T8 construct: Expressed in insect cells with a GP67 secretion signal; only the domain stood in the assay; not shown: GST fusion partner
T8 chain: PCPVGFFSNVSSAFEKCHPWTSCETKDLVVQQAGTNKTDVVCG

[9] = target: T9, CD40 extracellular Domain 2 GST fusion protein (human, UniProt P25942 61-104); test: Western blot, GST fusion of Domain 2 from insect cell supernatant
T9 construct: Expressed in insect cells with a GP67 secretion signal; not shown: GST fusion partner
T9 chain: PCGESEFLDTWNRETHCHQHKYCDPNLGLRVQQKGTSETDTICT

[10] = target: T10, CD40 Domain 2 10mer peptide, spot 22 (YCDPNLGLRV) (human); test: SPOTs peptide membrane stripped and reprobed with the mAb; spot 22 listed as recognized
T10 peptide: YCDPNLGLRV

[11] = target: T11, CD40 Domain 2 10mer peptide, spot 21 (KYCDPNLGLR) (human); test: SPOTs peptide membrane stripped and reprobed with the mAb; spot 21 listed as recognized
T11 peptide: KYCDPNLGLR

[12] = target: T12, CD40 Domain 2 10mer peptide, spot 20 (HKYCDPNLGL) (human); test: SPOTs peptide membrane stripped and reprobed with the mAb; spot 20 listed as recognized
T12 peptide: HKYCDPNLGL

[13] = target: T1, Recombinant soluble CD40-his; test: Biacore SPR, CD40-his over captured antibody
[14] = target: T3, CD40 Domain 2 peptide, spot 21; test: SPOTs membrane of 10mer peptides, antibody at 10 µg/ml
[15] = target: T13, CD40 Domain 2 peptide, spot 18 (human); test: as above
T13 construct: 10mer on a SPOTs membrane
T13 peptide: HQHKYCDPNL

[16] = target: T14, CD40 Domain 2 peptide, spot 19 (human); test: as above
T14 construct: 10mer on a SPOTs membrane
T14 peptide: QHKYCDPNLG

[17] = target: T4, CD40 Domain 2 peptide, spot 20; test: as above
[18] = target: T5, CD40 Domain 2 peptide, spot 22; test: as above
[19] = target: human CD40 on the cell surface (human, UniProt P25942 20-277); test: cell-based or functional assay
[20] = target: T10, CD40 Domain 2 10mer peptide, spot 22 …; test: SPOTs peptide membrane probed with the mAb at 10 µg/ml, anti-human IgG beta-galactosidase secondary; spot 22 listed as positive
[21] = target: T12, CD40 Domain 2 10mer peptide, spot 20 …; test: SPOTs peptide membrane probed with the mAb at 10 µg/ml, anti-human IgG beta-galactosidase secondary; spot 20 listed as positive
[22] = target: T11, CD40 Domain 2 10mer peptide, spot 21 …; test: SPOTs peptide membrane probed with the mAb at 10 µg/ml, anti-human IgG beta-galactosidase secondary; spot 21 listed as positive
[23] = target: T15, CD40 Domain 2 10mer peptide, spot 19 (QHKYCDPNLG) (human); test: SPOTs peptide membrane probed with the mAb at 10 µg/ml, anti-human IgG beta-galactosidase secondary; spot 19 listed as positive
T15 peptide: QHKYCDPNLG

[24] = target: T16, CD40 Domain 2 10mer peptide, spot 18 (HQHKYCDPNL) (human); test: SPOTs peptide membrane probed with the mAb at 10 µg/ml, anti-human IgG beta-galactosidase secondary; spot 18 listed as positive
T16 peptide: HQHKYCDPNL

Sequence of human CD40 on the cell surface (P25942 20-277): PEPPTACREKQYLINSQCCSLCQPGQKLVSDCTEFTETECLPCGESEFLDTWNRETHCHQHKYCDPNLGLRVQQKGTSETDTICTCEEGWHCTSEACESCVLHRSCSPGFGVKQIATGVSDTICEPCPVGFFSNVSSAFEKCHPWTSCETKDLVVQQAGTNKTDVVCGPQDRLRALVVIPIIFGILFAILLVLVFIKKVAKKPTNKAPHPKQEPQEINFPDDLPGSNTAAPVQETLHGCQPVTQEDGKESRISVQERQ

Kd [1]: 12200 pM | koff [1]: 0.015 s⁻¹ | kon [1]: 1.24e+06 M⁻¹ s⁻¹ | binding result [2]: binds | binding result [3]: binds | binding result [4]: binds | binding result [5]: binds
B1: CHIR-5.9 (antibody, human IgG1, kappa)
heavy: not shown
light: AIVMTQPPLSSPVTLGQPASISCRSSQSLVHSDGNTYLNWLQQRPGQPPRLLIYKFFRRLSGVPDRFSGSGAGTDFTLKISRVEAEDVGVYYCMQVTQFPHTFGQGTRLEIKRTVAAPSVFIFPPSDEQLKSGTASVVCLLNNFYPREAKVQWKVDNALQSGNSQESVTEQDSKDSTYSLSSTLTLSKADYEKHKVYACEVTHQGLSSPVTKSFNRGEC
notes: also called mAb CHIR-5.9

binding result [6]: no binding | binding result [7]: no binding | binding result [8]: no binding | binding result [9]: binds
B2: monoclonal antibody CHIR-5.9 (antibody, human IgG1, kappa)
light: AIVMTQPPLSSPVTLGQPASISCRSSQSLVHSDGNTYLNWLQQRPGQPPRLLIYKFFRRLSGVPDRFSGSGAGTDFTLKISRVEAEDVGVYYCMQVTQFPHTFGQGTRLEIKRTVAAPSVFIFPPSDEQLKSGTASVVCLLNNFYPREAKVQWKVDNALQSGNSQESVTEQDSKDSTYSLSSTLTLSKADYEKHKVYACEVTHQGLSSPVTKSFNRGEC
heavy: not shown
notes: Fully human IgG1 kappa anti-human CD40 mAb; Leader residues (1-20 light, 1-19 heavy) left out as stated; also called mAb CHIR-5.9

binding result [10]: binds | binding result [11]: binds | binding result [12]: binds
B3: anti-CD40 monoclonal antibody CHIR-5.9 (antibody, human IgG1, kappa)
light: AIVMTQPPLSSPVTLGQPASISCRSSQSLVHSDGNTYLNWLQQRPGQPPRLLIYKFFRRLSGVPDRFSGSGAGTDFTLKISRVEAEDVGVYYCMQVTQFPHTFGQGTRLEIKRTVAAPSVFIFPPSDEQLKSGTASVVCLLNNFYPREAKVQWKVDNALQSGNSQESVTEQDSKDSTYSLSSTLTLSKADYEKHKVYACEVTHQGLSSPVTKSFNRGEC
heavy: not shown
notes: Fully human IgG1 kappa; also called mAb CHIR-5.9; CHIP-5.9

Kd [1]: 510 pM | koff [1]: 0.000124 s⁻¹ | kon [1]: 241000 M⁻¹ s⁻¹ | binding result [2]: binds | fold difference in the off rate against CHIR-5.9 [13]: 121 fold | fold higher affinity against CHIR-5.9 [13]: 24 fold | binding result [14]: binds | binding result [15]: binds | binding result [16]: binds | binding result [17]: binds | binding result [18]: binds | average IC50 of inhibition of CD40 ligand-induced lymphocyte proliferation, lymphocytes from 6 donors [19]: 47 pM
B4: CHIR-12.12 (antibody, human IgG1, kappa)
heavy: not shown
light: DIVMTQSPLSLTVTPGEPASISCRSSQSLLYSNGYNYLDWYLQKPGQSPQVLISLGSNRASGVPDRFSGSGSGTDFTLKISRVEAEDVGVYYCMQARQTPFTFGPGTKVDIRRTVAAPSVFIFPPSDEQLKSGTASVVCLLNNFYPREAKVQWKVDNALQSGNSQESVTEQDSKDSTYSLSSTLTLSKADYEKHKVYACEVTHQGLSSPVTKSFNRGEC

binding result [6]: no binding | binding result [7]: no binding | binding result [8]: no binding | binding result [9]: binds
B5: monoclonal antibody CHIR-12.12 (antibody, human IgG1, kappa)
light: DIVMTQSPLSLTVTPGEPASISCRSSQSLLYSNGYNYLDWYLQKPGQSPQVLISLGSNRASGVPDRFSGSGSGTDFTLKISRVEAEDVGVYYCMQARQTPFTFGPGTKVDIRRTVAAPSVFIFPPSDEQLKSGTASVVCLLNNFYPREAKVQWKVDNALQSGNSQESVTEQDSKDSTYSLSSTLTLSKADYEKHKVYACEVTHQGLSSPVTKSFNRGEC
heavy: not shown
notes: Fully human IgG1 kappa anti-human CD40 mAb; Leader residues (1-20 light, 1-19 heavy) left out as stated

binding result [20]: binds | binding result [21]: binds | binding result [22]: binds | binding result [23]: binds | binding result [24]: binds
B6: anti-CD40 monoclonal antibody CHIR-12.12 (antibody, human IgG1, kappa)
light: DIVMTQSPLSLTVTPGEPASISCRSSQSLLYSNGYNYLDWYLQKPGQSPQVLISLGSNRASGVPDRFSGSGSGTDFTLKISRVEAEDVGVYYCMQARQTPFTFGPGTKVDIRRTVAAPSVFIFPPSDEQLKSGTASVVCLLNNFYPREAKVQWKVDNALQSGNSQESVTEQDSKDSTYSLSSTLTLSKADYEKHKVYACEVTHQGLSSPVTKSFNRGEC
heavy: not shown
notes: Fully human IgG1 kappa
